Several values for one entry are separate records, joined by “and”; a condition that tells them apart may be missing. Equal entries are not always repeated.

Test [1] concerns the target EspFU R475 R475 (fifth 47-residue repeat) (Escherichia coli O157:H7), P0DJ88. Description: ITC. Background: ITC needs no label: the signal is the heat of the interaction.
Test [2] deals with EspFU R2 20-residue peptide from second repeat (Escherichia coli O157:H7), P0DJ88. Description: ITC.

B1: N-WASP GBD GBD, O00401 (protein)
chain: KRLTKADIGTPSNFQHIGHVGWDPNTGFDLNNLDPELKNLFDMCGISEAQLKDRETSKVIYDFIEKTGGVEAVKNELRR
On to B1, for which, in test [1], the Kd is 40 nM and 70 nM.

B2: IRTKS SH3 SH3, Q9UHR4 (protein)
chain: LNMMKKQKVKTIFPHTAGSNKTLLSFAQGDVITLLIPEEKDGWLYGEHDVSKARGWFPSSYTKLLEENET
In test [2], B2 displayed a Kd of 1100 nM. This lies in the single-digit micromolar range.

Broadly, the Kd is a measure of binding affinity in units of concentration.

For the origin of these results see paper PMC3472031.
